According to publication doi:10.1101/2021.04.07.438849 (bioRxiv, 2021):

Target: T1, NTD of the SARS-CoV-2 spike protein (SARS-CoV-2 Wuhan-Hu-1, UniProt P0DTC2)
T1 construct: also called N-terminal domain
Assay: ELISA
Conditions: both partners purified

B1: 8–131 (antibody, V domains shown)
VH: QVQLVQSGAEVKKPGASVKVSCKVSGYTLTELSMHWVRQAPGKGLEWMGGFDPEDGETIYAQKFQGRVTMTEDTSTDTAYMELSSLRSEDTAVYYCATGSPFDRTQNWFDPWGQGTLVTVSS
VL: QSVVTQPPSVSAAPGQKVTISCSGSRSNIGNNYVSWYQQLPGTAPKLLIYDYDKRPSGIPDRFSGSKSGTSATLGITGLQTGDEADYYCGTWDNSLSAGVFGGGTRLTVL
Does B1 bind?
Result: binds
